Assay results: patent publication US20040265295A1 (WISCONSIN ALUMNI RESEARCH FOUNDATION, published 2004)
Square brackets hold non-standard residues; d marks the D form. Ends that are not written are not given here. pY = N[C@@H](Cc1ccc(OP(=O)(O)O)cc1)C(=O)O; pT = C[C@@H](OP(=O)(O)O)[C@H](N)C(=O)O

Key:
talin [1] = biological target: T1, talin (Homo sapiens (Human), UniProt Q9Y490 1-2541); test: peptide displacement of PIPKIγ661 (competitor) from talin in HEK293T cell lysates
T1 construct: Endogenous talin of HEK293T (and other) cells, detected with anti-talin antibody; also called talin (endogenous, in cell lysates)
Protocol: (§1) Talin interactions were assessed by GST pull-down using recombinant GST-talin head, His-PIPKIγ635 C-terminus, His-PIPKIγ661 wild-type or Tyr to Phe mutant C-terminus, and His-β1-integrin tail. […] Peptides containing the PIPKIγ661/talin binding sequence (Di Paolo, et al. (2002) supra) were designed to include phosphorylated Tyr⁶⁴⁴₁, phosphorylated Tyr⁶⁴⁹₁ and dual phosphorylated Tyr⁶⁴⁴ and Tyr⁶⁴⁹. The phosphorylated peptides displaced PIPKIγ661 from talin more efficiently than the non-phosphorylated peptide in HEK293T cell lysates.

talin [2] = biological target: T1, talin; test: co-immunoprecipitation with talin
talin [3] = biological target: T1, talin; test: co-immunoprecipitation from HEK293T cells in suspension versus adherent to type I collagen
Protocol: The association between PIPKIγ661 and talin was also regulated by adhesion to type I collagen. […] However, in suspended cells, the PIPKIγ661 association with talin was restored when cells were stimulated with lysophosphatidic acid (LPA) or platelet-derived growth factor (PDGF).
Immunoprecipitation was performed using standard methods (Zhang, et al. (1997) J. Biol. Chem. 272:17756-17761). Briefly, transfected HEK293T cells were harvested and lysed in Buffer A (50 mM Tris-HCl, pH 7.5, 150 mM NaCl, 0.1-1.0% NP-40, 5.0 mM NaF, 2 mM Na₃VO₄, 4 mM Na₂P₂O₇, 1 mM EDTA, 0.1 mM EGTA, 1 mM phenylmethyl sulphonyl fluoride (PMSF), 10% glycerol), centrifuged and incubated with protein A-Sepharose and 5 μg anti-HA, anti-c-Myc, anti-Flag, anti-PIPKIγ or anti-talin antibody as indicated at 4° C. for 4 hours to overnight. The immunocomplexes were washed with Buffer A, separated by SDS-polyacrylamide gel electrophoresis (SDS-PAGE), and analyzed as indicated. For the kinase assay, the immunocomplexes were washed and stored in kinase buffer.
The cells were harvested and washed with PBS, and suspended in serum-free DMEM at 37° C. for 1 hour. After stimulation with 10 ng/ml platelet-derived growth factor (PDGF) (R&D Systems Inc., Minneapolis, Minn.), 1 μuM LPA (Sigma, St. Louis) or serum at 37° C. for 15 minutes, cells were lysed as for immunoprecipitation. […]

vinculin = biological target: T2, vinculin (UniProt P18206-2 1-1066, limits assumed); test: co-immunoprecipitation with HA-tagged PIPKIγ661 from HEK 293T cells
T2 sequence (looked up): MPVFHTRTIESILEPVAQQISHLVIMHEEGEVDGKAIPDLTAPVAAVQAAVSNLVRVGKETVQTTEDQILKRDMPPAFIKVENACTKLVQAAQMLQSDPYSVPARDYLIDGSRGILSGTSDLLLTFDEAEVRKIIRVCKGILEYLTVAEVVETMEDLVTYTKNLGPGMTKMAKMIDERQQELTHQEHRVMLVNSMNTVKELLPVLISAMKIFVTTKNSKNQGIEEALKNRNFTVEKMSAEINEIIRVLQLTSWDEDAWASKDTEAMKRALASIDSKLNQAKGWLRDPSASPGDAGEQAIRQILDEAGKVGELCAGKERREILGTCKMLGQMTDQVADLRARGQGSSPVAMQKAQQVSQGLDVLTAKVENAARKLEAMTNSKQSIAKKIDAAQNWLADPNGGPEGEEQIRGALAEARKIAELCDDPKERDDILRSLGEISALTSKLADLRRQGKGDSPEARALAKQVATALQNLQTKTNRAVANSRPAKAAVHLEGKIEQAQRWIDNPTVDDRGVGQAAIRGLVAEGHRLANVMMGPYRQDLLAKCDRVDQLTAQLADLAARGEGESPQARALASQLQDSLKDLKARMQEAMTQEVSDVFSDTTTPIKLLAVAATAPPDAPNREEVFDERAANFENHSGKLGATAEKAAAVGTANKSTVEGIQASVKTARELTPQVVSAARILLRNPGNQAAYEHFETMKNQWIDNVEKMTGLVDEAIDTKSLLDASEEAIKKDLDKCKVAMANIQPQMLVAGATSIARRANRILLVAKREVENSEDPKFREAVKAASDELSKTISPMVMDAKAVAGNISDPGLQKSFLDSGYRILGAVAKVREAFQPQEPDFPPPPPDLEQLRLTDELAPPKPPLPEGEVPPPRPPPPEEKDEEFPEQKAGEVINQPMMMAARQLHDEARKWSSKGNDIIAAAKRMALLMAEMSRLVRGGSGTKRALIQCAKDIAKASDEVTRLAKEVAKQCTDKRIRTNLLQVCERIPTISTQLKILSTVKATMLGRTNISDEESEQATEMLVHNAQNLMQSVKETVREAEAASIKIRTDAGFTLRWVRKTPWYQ
Description: (§2) Two approaches were used to identify proteins that specifically interact with PIPKIγ661. […] As numerous focal adhesion proteins are tyrosine phosphorylated, the immunoprecipitates were immunoblotted with anti-phosphotyrosine antibodies. A tyrosine-phosphorylated protein of relative molecular mass 230,000 (Mᵣ 230K) was selectively immunoprecipitated with PIPKIγ661. This protein was identified as talin (Pasquale, et al. (1986) Proc. Natl Acad. Sci. USA 83:5507-5511; DeClue and Martin (1987) Mol. Cell Biol. 7:371-378). […] Only the PIPKIα/γ chimeras that target to focal adhesions associated with talin. To confirm the talin-PIPKIγ661 interaction, talin was immunoprecipitated from HEK293T cells overexpressing PIPKIγ661 or PIPKIγ635. Talin co-precipitated with PIPKIγ661, but not PIPKIγ635. It is known that endogenous PIPKIγ splice isoforms are widely expressed in various cell lines. When endogenous PIPKIγ was immunoprecipitated from a variety of cells types, talin association was consistently observed.
(§3) Immunoprecipitation was performed using standard methods (Zhang, et al. (1997) J. Biol. Chem. 272:17756-17761). […] The immunocomplexes were washed with Buffer A, separated by SDS-polyacrylamide gel electrophoresis (SDS-PAGE), and analyzed as indicated. […]

tensin = tensin (UniProt Q9HBL0 1-1839, limits assumed); test: as above
Description: as §2, §3

[4] = biological target: T3, GST-talin head (human talin1 head region 1-435) (human, UniProt Q9Y490 1-435); test: peptide competition of integrin tail (competitor) binding to GST-talin
T3 construct: The construct is human talin1 head region (1-435) cloned from HEK293T cells; also called wild-type GST-talin; not shown: GST (and further tags) of the pET42 vector
Protocol: (§4) Purified GST-talin head proteins were incubated with PIPKIγ661 tails or β1-integrin tail, together with Glutathione SEPHAROSE™ 4 Fast Flow (Amersham Biosciences, Piscataway, N.J.), in Buffer B (PBS, 0.2% NP-40, 2 mM DTT) at 4° C. for 4 hours. The beads were washed three times with Buffer B and analyzed by western blot. For competition assays, GST-talin head proteins were incubated with peptides or competing proteins for 2 hours, then the binding proteins were added and the mixtures were incubated for another 4 hours.

[5] = biological target: T3, GST-talin head (human talin1 head …); test: GST pull-down competition in vitro; competitor His-β1-integrin tail
Protocol: as §1, §4

talin [6] = biological target: T1, talin; test: co-immunoprecipitation of c-Myc-tagged chimeras
Description: as §2, §3

T1 sequence (Q9Y490 other isoform, or with tags, fused parts or gaps limits assumed): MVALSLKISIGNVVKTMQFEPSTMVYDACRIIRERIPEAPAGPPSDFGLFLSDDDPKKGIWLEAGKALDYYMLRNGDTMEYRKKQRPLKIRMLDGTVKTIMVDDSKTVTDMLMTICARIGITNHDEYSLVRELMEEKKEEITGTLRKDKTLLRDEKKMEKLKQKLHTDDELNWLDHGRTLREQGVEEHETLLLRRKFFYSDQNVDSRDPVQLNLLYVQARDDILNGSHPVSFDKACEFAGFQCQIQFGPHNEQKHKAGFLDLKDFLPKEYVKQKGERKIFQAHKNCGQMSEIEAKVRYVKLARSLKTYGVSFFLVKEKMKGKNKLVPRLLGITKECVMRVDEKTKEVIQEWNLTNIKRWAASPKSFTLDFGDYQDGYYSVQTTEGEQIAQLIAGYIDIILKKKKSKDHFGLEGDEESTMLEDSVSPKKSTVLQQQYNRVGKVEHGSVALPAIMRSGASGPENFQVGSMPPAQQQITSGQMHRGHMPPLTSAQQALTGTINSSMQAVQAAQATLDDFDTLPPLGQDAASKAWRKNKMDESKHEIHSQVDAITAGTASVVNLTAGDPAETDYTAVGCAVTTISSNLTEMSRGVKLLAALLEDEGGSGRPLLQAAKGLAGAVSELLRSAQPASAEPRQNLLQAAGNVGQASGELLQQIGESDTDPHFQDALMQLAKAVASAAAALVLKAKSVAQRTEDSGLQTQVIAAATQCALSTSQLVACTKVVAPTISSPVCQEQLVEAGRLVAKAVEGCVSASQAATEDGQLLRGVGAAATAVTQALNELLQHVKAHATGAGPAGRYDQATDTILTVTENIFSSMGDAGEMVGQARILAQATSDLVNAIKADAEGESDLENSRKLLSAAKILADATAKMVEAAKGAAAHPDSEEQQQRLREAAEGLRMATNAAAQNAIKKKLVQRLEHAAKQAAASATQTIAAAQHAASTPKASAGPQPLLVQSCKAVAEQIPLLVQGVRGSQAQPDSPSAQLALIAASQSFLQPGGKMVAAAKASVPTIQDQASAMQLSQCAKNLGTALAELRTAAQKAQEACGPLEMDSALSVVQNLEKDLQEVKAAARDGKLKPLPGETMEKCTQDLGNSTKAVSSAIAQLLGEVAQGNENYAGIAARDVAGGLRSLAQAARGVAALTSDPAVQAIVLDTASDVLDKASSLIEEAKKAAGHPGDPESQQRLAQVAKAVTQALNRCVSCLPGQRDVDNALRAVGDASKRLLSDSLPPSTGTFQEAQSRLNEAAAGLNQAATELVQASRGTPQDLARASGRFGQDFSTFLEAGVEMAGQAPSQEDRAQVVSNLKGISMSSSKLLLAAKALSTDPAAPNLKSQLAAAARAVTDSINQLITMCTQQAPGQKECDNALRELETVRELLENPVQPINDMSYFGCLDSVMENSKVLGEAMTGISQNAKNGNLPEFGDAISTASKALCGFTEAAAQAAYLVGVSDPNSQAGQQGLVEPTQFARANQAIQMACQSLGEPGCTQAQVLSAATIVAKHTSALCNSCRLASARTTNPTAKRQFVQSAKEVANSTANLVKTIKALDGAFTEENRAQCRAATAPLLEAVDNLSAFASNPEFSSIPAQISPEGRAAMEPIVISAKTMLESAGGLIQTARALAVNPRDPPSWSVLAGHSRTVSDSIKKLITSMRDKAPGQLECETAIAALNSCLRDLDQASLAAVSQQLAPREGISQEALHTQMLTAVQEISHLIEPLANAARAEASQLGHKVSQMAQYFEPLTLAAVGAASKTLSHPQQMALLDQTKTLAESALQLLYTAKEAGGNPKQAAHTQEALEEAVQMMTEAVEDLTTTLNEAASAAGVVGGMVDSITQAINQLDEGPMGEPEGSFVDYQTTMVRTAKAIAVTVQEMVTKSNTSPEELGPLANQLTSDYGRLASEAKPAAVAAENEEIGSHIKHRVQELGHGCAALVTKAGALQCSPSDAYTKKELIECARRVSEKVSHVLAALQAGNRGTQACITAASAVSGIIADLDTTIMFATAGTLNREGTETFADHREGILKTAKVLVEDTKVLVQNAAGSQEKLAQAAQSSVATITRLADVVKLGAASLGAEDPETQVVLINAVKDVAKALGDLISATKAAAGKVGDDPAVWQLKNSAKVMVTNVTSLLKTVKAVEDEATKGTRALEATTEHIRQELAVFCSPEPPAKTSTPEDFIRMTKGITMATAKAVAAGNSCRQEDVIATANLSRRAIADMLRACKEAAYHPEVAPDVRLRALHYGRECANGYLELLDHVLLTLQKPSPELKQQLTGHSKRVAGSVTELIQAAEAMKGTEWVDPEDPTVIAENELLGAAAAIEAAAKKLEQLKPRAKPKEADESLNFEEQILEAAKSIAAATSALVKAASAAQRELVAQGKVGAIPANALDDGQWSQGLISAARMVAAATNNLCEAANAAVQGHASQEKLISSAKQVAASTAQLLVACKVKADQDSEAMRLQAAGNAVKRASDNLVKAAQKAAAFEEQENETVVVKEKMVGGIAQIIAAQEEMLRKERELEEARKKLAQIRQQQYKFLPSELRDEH
T3 sequence (Q9Y490 1-435): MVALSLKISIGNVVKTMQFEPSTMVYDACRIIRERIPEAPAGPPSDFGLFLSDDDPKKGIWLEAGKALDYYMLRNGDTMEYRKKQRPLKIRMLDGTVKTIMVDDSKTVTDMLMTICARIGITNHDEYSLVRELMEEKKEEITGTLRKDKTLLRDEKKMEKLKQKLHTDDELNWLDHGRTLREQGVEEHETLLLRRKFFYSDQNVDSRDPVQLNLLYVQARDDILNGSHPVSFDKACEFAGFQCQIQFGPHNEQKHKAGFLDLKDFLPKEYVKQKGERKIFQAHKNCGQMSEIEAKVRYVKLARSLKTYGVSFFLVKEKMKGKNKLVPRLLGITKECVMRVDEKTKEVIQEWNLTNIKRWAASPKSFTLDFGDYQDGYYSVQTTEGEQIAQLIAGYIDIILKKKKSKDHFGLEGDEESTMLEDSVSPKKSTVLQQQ
Chain of tensin (Q9HBL0 whole entry): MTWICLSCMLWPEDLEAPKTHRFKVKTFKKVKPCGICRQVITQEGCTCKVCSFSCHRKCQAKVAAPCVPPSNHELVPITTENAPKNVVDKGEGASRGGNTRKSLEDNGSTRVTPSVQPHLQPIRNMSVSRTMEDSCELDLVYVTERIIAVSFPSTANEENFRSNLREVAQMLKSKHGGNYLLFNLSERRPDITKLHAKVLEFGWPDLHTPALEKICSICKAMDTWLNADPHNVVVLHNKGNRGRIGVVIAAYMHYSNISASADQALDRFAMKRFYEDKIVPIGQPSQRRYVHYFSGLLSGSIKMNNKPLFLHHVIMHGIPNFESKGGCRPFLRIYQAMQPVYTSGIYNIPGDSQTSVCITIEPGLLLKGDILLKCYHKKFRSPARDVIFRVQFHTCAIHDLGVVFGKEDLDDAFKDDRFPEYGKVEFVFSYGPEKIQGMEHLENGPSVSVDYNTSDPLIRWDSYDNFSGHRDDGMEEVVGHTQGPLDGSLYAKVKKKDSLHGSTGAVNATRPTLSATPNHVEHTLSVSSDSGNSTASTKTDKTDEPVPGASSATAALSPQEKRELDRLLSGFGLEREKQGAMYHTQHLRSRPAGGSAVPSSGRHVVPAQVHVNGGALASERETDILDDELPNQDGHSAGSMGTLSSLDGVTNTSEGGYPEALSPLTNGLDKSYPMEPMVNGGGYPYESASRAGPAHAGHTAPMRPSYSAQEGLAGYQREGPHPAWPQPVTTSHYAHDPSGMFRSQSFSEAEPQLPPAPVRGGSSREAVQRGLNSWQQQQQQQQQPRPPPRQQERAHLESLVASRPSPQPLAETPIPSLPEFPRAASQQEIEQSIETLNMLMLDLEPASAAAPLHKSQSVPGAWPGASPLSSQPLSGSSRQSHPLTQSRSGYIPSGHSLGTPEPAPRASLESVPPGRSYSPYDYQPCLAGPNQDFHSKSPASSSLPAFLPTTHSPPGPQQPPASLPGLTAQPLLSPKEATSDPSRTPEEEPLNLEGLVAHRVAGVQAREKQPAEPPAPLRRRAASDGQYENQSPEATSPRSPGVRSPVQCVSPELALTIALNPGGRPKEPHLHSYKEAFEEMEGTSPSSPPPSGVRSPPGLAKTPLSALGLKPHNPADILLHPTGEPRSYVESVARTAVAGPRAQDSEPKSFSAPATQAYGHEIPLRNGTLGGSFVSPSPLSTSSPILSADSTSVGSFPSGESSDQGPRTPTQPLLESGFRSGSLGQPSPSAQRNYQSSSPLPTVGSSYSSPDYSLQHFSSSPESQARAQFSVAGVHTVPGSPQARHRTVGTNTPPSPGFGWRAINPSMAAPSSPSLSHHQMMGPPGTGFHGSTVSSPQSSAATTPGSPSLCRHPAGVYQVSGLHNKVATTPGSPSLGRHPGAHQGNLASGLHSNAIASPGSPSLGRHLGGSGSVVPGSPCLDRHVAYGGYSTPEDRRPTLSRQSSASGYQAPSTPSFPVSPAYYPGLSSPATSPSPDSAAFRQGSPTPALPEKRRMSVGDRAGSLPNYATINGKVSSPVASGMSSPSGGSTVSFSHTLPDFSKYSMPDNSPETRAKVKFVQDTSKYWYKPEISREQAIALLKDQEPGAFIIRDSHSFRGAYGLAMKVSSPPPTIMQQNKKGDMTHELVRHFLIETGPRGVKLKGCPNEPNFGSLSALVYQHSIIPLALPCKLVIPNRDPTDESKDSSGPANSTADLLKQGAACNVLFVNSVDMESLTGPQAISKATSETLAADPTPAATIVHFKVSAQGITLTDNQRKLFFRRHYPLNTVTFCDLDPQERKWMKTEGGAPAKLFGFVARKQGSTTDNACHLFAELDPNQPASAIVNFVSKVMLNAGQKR

B1: PIPKIγ661 peptide PN (peptide)
peptide: CDERSWVYSPLHYSAR
notes: Synthetic peptide with an added N-terminal Cys; also called non-phosphorylated peptide; unphosphorylated peptide
- binding result (talin [1]): binds

B2: PIPKIγ-W (enzyme)
chain: MELEVPDEAESAEAGAVTAEAAWSAESGAAAGMTQKKAGLAEAPLVTGQPGPGHGKKLGHRGVDASGETTYKKTTSSTLKGAIQLGIGYTVGNLSSKPERDVLMQDFYVMESIFFPSEGSNFTPAHHFQDFRFKTYAPVAFRYFRELFGIRPDDYLYSLCNEPLIELSNPGASGSVFYVTSDDEFIIKTVMHKEAEFLQKLLPGYYMNLNQNPRTLLPKFYGLYCVQSGGKNIRVVVMNNVLPRVVKMHLKFDLKGSTYKRRASKKEKEKSLPTYKDLDFMQDMPEGLLLDSDTFGALVKTLQRDCLVLESFKIMDYSLLLGVHNIDQQERERQAEGAQSKADEKRPVAQKALYSTAMESIQGGAARGEAIETDDTMGGIPAVNGRGERLLLHIGIIDILQSYRFIKKLEHTWKALVHDGDTVSVHRPSFYAERFFKFMSSTVFRKSSSLKSSPSKKGRGALLAVKPLGPTAAFSASQIPSEREDVQYDLRGARSYPTLEDEGRPDLLPCTPPSFEEATTASIATTLSSTSLSIPERSPSDTSEQPRYRRRTQSSGQDGRPQEEPHAEDLQKITVQVEPVCGVGVVPKEEGAGVEVPPCGASAAASVEIDAASQASEPASQASDEEDAPSTDIYFPTDERS
notes: The text says only that it lacks both Tyr644 and Tyr649; The end at Trp642 is inferred from the name; also called tail-truncation mutant of PIPKIγ661 lacking Tyr644 and Tyr649
- binding result (talin [2]): no binding

B3: Haemagglutinin (HA)-tagged PIPKIγ661 (enzyme, not shown: small tags and cut ends)
chain: MELEVPDEAESAEAGAVTAEAAWSAESGAAAGMTQKKAGLAEAPLVTGQPGPGHGKKLGHRGVDASGETTYKKTTSSTLKGAIQLGIGYTVGNLSSKPERDVLMQDFYVMESIFFPSEGSNFTPAHHFQDFRFKTYAPVAFRYFRELFGIRPDDYLYSLCNEPLIELSNPGASGSVFYVTSDDEFIIKTVMHKEAEFLQKLLPGYYMNLNQNPRTLLPKFYGLYCVQSGGKNIRVVVMNNVLPRVVKMHLKFDLKGSTYKRRASKKEKEKSLPTYKDLDFMQDMPEGLLLDSDTFGALVKTLQRDCLVLESFKIMDYSLLLGVHNIDQQERERQAEGAQSKADEKRPVAQKALYSTAMESIQGGAARGEAIETDDTMGGIPAVNGRGERLLLHIGIIDILQSYRFIKKLEHTWKALVHDGDTVSVHRPSFYAERFFKFMSSTVFRKSSSLKSSPSKKGRGALLAVKPLGPTAAFSASQIPSEREDVQYDLRGARSYPTLEDEGRPDLLPCTPPSFEEATTASIATTLSSTSLSIPERSPSDTSEQPRYRRRTQSSGQDGRPQEEPHAEDLQKITVQVEPVCGVGVVPKEEGAGVEVPPCGASAAASVEIDAASQASEPASQASDEEDAPSTDIYFPTDERSWVYSPLHYSARPASDGESDT
notes: tyrosine phosphorylated in cells to an extent that depends on the conditions; also called Type I phosphatidylinositol phosphate kinase isoform γ661; HA-PIPKIγ661
- binding result (talin [3]): binds
- binding result (vinculin): no binding
- binding result (tensin): no binding

B4: β1-integrin tail peptide β1InpY (peptide)
peptide: CMNAKWDTGENPI[pY]KSA
modifications: not fully specified; printed as Cys-Met-Asn-Ala-Lys-Trp-Asp-*Thr-Gly-Glu-Asn-Pro-Ile-*Tyr-Lys-Ser-Ala
notes: also called phosphorylated Asn-Pro-Ile-Tyr peptide
- binding result [4]: binds

B5: PIPKIγ661 peptide pY644 (peptide)
peptide: CDERSWV[pY]SPLHYSAR
notes: Synthetic peptide with an added N-terminal Cys
- fold higher affinity than the non-phosphorylated peptide [5]: 20 fold

B6: β1-integrin tail peptide β1InpT (peptide)
peptide: CMNAKWD[pT]GENPIYKSA
notes: Synthetic peptide; also called phosphorylated Trp-Asp-Thr peptide
- binding result [4]: binds

B7: PIPKIα/γ635 chimera (c-Myc-tagged) (enzyme, not shown: small tags and cut ends)
chain: MASASSGPSSSVGFSSFDPAVPSCTLSSAASGIKRPMASEVLEARQDSYISLVPYASGMPIKKIGHRSVDSSGETTYKKTTSSALKGAIQLGITHTVGSLSTKPERDVLMQDFYVVESIFFPSEGSNLTPAHHYNDFRFKTYAPVAFRYFRELFGIRPDDYLYSLCSEPLIELCSSGASGSLFYVSSDDEFIIKTVQHKEAEFLQKLLPGYYMNLNQNPRTLLPKFYGLYCVQAGGKNIRIVVMNNLLPRSVKMHIKYDLKGSTYKRRASQKEREKPLPTFKDLDFLQDIPDGLFLDADMYNALCKTLQRDCLVLQSFKIMDYSLLMSIHNIDHAQREPLSSETQYSVDTRRPAPQKALYSTAMESIQGEARRGGTMETDDHMGGIPARNSKGERLLLYIGIIDILQSYRFVKKLEHSWKALVHDGDTVSVHRPGFYAERFQRFEDVQYDLRGARSYPTLEDEGRPDLLPCTPPSFEEATTASIATTLSSTSLSIPERSPSDTSEQPRYRRRTQSSGQDGRPQEEPHAEDLQKITVQVEPVCGVGVVPKEEGAGVEVPPCGASAAASVEIDAASQASEPASQASDEEDAPSTDIYF
notes: range 1-444
- binding result (talin [6]): no binding

B8: PIPKIγ661 peptide pY644/649 (peptide)
peptide: CDERSWV[pY]SPLH[pY]SAR
notes: Synthetic peptide with an added N-terminal Cys; also called dual phosphorylated peptide
- fold higher affinity than the non-phosphorylated peptide [5]: 20 fold

B9: PIPKIγ661 peptide pY649 (peptide)
peptide: CDERSWVYSPLH[pY]SAR
notes: as for B5
- fold higher affinity than the non-phosphorylated peptide [5]: 20 fold
